In patent US7094554 (University of Texas, dated 2006):

Tests used:
[1] = biological target: T1, Cry1Ab toxin (trypsinized 60 kD toxin) (Bacillus thuringiensis, UniProt P0A370 29-620, limits assumed, radioiodinated (125I, chloramine T) where used as labelled ligand); test: competition ligand blot, 125I-Cry1Ab with unlabeled Cry1Ab on the 32 kD protein, gamma counting
T1 construct: domain: soluble trypsinized 60 kD toxin; also called Cry lAb

[2] = biological target: T1, Cry1Ab toxin (trypsinized 60 kD toxin); test: blot of E. coli lysate incubated with Cry1Ab toxin, then anti-toxin antiserum

| Binder | Kd [1] [nM] | binding result [2] |
| --- | --- | --- |
| PBW-866 expressed protein (BT-R2 aa 1210-1496), 32 kD (receptor, also called 32 kD protein) EEGKEFEVTIRATDGGTEPRSYSTDSTITVLFVPTLGDPIFQDNTYSVAFFEKEVGLTERFSLPHAEDPKNKLCTDDCHDIYYRIFGGVDYEPFDLDPVTNVIFLKSELDRETTATHVVQVAASNSPTGGGIPLPGSLLTVTVTVREADPRPVFEQRLYTAGISTSDNINRELLTVRATHSENAQLTYTIEDGSMAVDSTLEAVKDSAFHLNAQTGVLILRIQPTASMQGMFEFNVIATDPDEKTDTAEVKVYLISSQNRVSFIFLNDVETVESNRDFIAETFSVGF | ~17 | – |
| PBW-421 expressed protein (BT-R2 aa 1367-1496), 21 kD (receptor, also called 21 kD protein) LYTAGISTSDNINRELLTVRATHSENAQLTYTIEDGSMAVDSTLEAVKDSAFHLNAQTGVLILRIQPTASMQGMFEFNVIATDPDEKTDTAEVKVYLISSQNRVSFIFLNDVETVESNRDFIAETFSVGF | – | no binding |
